Test results as given in US20250205353A1 (SYNAFFIX B V, published 2025).
Each block holds one binder with its values, some of them ahead of it.

What was measured:
[1] = molecular target: T1, Nectin-4 on SK-BR-3 cells (UniProt Q96NY8 32-510, limits assumed); test: cell-based or functional assay
T1 sequence (looked up): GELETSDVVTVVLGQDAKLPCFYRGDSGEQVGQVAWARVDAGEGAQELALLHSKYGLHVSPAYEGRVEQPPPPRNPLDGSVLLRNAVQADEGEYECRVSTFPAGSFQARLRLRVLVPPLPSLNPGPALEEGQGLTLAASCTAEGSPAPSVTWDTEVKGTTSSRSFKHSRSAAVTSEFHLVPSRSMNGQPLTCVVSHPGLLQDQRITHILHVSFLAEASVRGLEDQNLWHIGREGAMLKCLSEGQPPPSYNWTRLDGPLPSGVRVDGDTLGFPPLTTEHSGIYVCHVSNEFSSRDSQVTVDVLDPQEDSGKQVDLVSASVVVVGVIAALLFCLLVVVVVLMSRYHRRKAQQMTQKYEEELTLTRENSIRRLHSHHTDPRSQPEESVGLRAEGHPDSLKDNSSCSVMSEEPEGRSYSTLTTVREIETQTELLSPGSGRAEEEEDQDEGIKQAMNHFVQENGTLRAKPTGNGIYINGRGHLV

[2] = molecular target: T2, Human Nectin-4 (PVRL4 Protein, ECD, His Tag) (human, UniProt Q96NY8 32-349); test: ELISA; His-tagged Nectin-4 ECD on nickel NTA plates, detection with anti-human IgG-HRP
T2 construct: extracellular domain; Recombinant protein captured on nickel NTA plates; also called hNectin-4; PVRL4-His; not shown: His tag
T2 sequence (looked up): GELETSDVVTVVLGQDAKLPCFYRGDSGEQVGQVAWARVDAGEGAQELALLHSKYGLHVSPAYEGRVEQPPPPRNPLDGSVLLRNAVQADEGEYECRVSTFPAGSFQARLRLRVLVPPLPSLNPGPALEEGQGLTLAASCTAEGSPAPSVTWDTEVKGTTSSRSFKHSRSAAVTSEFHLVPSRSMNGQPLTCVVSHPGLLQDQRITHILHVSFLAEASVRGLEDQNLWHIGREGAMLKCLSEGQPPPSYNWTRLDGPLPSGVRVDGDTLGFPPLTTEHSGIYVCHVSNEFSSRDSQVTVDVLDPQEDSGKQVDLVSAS
Experimental: Nickel NTA plates (Pierce™ Nickel coated plated, ThermoScientific™) were washed three times prior to use. Human Nectin-4 (PVRL4 Protein, ECD, His Tag) was dissolved at a concentration of […] in 0.1% BSA in PBS (PBA). 100 μL was added to each well and incubated while shaking for 1 hour at room temperature. After removal, the plate was washed 3x with 0.05% Tween-20 in PBS (washing buffer). ADCs were diluted in 0.1% PBA to a final concentration of 8 μg/mL and 100 μL was added to each well (in triplo). ADCs were incubated for 1 h at room temperature. Prior to the addition of 100 μL 1:1000 dilution of secondary antibody (Goat anti-human IgG, HRP conjugate, Invitrogen) the plate was washed 3x with washing buffer. The plate was incubated again for 1 h at room temperature and subsequently washed 3x with washing buffer and 3x with PBS. Finally, 100 μL TMB ELISA substrate (1 Step™ Turbo TMB ELISA substrate, ThermoScientific™) was added and incubated for 1 minute. The absorbance of the colorimetric signal was measured with Infinite® M1000 (Tecan) at 652 nm. Data was plotted corrected for the background (see FIG. 8).

B1: Enfortumab YTE-4 (other)
heavy: EVQLVESGGGLVQPGGSLRLSCAASGFTFSSYNMNWVRQAPGKGLEWVSYISSSSSTIYYADSVKGRFTISRDNAKNSLSLQMNSLRDEDTAVYYCARAYYYGMDVWGQGTTVTVSSASTKGPSVFPLAPSSKSTSGGTAALGCLVKDYFPEPVTVSWNSGALTSGVHTFPAVLQSSGLYSLSSVVTVPSSSLGTQTYICNVNHKPSNTKVDKRVEPKSCDKTHTCPPCPAPELLGGPSVFLFPPKPKDTLYITREPEVTCVVVDVSHEDPEVKFNWYVDGVEVHNAKTKPREEQYNSTYRVVSVLTVLHQDWLNGKEYKCKVSNKALPAPIEKTISKAKGQPREPQVYTLPPSREEMTKNQVSLTCLVKGFYPSDIAVEWESNGQPENNYKTTPPVLDSDGSFFLYSKLTVDKSRWQQGNVFSCSVMHEALHNHYTQKSLSLSPGK
light: DIQMTQSPSSVSASVGDRVTITCRASQGISGWLAWYQQKPGKAPKFLIYAASTLQSGVPSRFSGSGSGTDFTLTISSLQPEDFATYYCQQANSFPPTFGGGTKVEIKRTVAAPSVFIFPPSDEQLKSGTASVVCLLNNFYPREAKVQWKVDNALQSGNSQESVTEQDSKDSTYSLSSTLTLSKADYEKHKVYACEVTHQGLSSPVTKSFNRGEC
modifications: linker-payload 4 (BCN-HS-(vc-PABC-MMAE)2) clicked to 6-N3-GalNAc on the trimmed core GlcNAc of the heavy-chain glycan; average DAR 3.67
IC50 (nM), in vitro cytotoxicity on SK-BR-3 cells (ATPlite luminescence) [1]: 0.05 nM

binding result [2]: binds
B2: enfortumab (I) (antibody, human IgG1, kappa)
heavy: not shown
light: B1 light
notes: IgG transiently expressed in CHO K1 cells; also called Ha22-2(2,4)6.1

binding result [2]: binds
B3: enfortumab YTE (II) (antibody, human IgG1, kappa)
heavy: B1 heavy
light: B1 light
notes: also called enfortumab YTE mutant
